In US20170360949A1 (TIANJIN INSTITUTE OF INDUSTRIAL BIOTECHNOLOGY CHINESE …, published 2017):
Blank lines part the entries; values can stand above or below the binder they belong to.

Legend:
[1] = target: T1, Z1Z2 (two Ig domains at the N terminus of the titin molecule) (human); assay: SDS-PAGE and Native-PAGE of the purified complex
T1 construct: also called polypeptide A
T1 chain: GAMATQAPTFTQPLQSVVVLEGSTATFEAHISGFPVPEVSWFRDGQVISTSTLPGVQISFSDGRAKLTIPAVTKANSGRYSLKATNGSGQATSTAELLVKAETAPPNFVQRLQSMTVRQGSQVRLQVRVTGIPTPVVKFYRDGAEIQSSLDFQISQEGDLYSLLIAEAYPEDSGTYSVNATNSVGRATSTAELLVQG

[2] = target: T2, ZSST (human); assay: SDS-PAGE and Native-PAGE of the purified complex
T2 construct: Two ZSST chains stand in the ZSST/TeN complex; End residue 237 from claim 18; also called SST inserted into a loop of the Z1Z2 molecule
T2 chain: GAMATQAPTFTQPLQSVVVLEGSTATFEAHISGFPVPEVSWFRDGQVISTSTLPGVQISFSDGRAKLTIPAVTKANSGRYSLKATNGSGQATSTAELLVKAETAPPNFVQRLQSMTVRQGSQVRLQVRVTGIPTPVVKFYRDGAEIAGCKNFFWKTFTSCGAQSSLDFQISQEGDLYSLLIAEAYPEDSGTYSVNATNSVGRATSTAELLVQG

[3] = target: T3, GLZ (human); assay: SDS-PAGE and Native-PAGE of the purified complex
T3 construct: Two GLZ chains stand in the GLZ/TeN complex; End residue 260 from claim 16; also called GLP-1(8G) attached to the N terminus of Z1Z2
T3 chain: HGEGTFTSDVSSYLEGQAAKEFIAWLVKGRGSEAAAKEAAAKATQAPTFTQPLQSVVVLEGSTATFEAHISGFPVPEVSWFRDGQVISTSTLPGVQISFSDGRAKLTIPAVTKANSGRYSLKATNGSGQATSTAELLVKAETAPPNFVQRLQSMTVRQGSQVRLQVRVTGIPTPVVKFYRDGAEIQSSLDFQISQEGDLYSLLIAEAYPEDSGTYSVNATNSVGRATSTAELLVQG

[4] = target: T1, Z1Z2 (two Ig domains at the N terminus …); assay: complex formation by mixing in urea and dialysis, then co-purification

binding result [1]: binds
B1: SSTe (other)
chain: GAMATSELSSEVSEENSEAGCKNFFWKTFTSCGGRREAFWAEWKDLTLSTRPEEGSSLHEEDTQRHETYHQQGQSQVLVQRSPWLMMRMGILGRGLQEYQLPYQRVLP
notes: claim 17 gives 25-132; also called SST inserted into the Loop (LT1) of a TeN mutant

binding result [2]: binds | binding result [3]: binds
B2: TeN (N terminus of Telethonin, Cys mutated to Ser) (other)
chain: GAMATSELSSEVSEENSERREAFWAEWKDLTLSTRPEEGSSLHEEDTQRHETYHQQGQSQVLVQRSPWLMMRMGILGRGLQEYQLPYQRVLP
notes: also called polypeptide B

binding result [4]: binds
B3: GLTe (other)
chain: HAEGTFTSDVSSYLEGQAAKEFIAWLVKGRGGGGGSGGGGSGGGGSAMATSELSSEVSEENSERREAFWAEWKDLTLSTRPEEGSSLHEEDTQRHETYHQQGQSQVLVQRSPWLMMRMGILGRGLQEYQLPYQRVLP
notes: TEV site printed as between positions 25 and 26, in conflict with GLP-1 at 25-55; claim 15 gives 25-161; also called GLP-1 (7-37) attached via (GGGGS)3 to the N terminus of TeN
